Measured values as given in publication PMC11077089, “Molecular basis of A. thaliana KEOPS complex in biosynthesizing tRNA t^6A” (Nucleic Acids Research, 2024).

How the values were obtained:
[1] = biological target: the molecule itself; experiment: cell-based or functional assay
[2] = biological target: the molecule itself; experiment: SEC; oligomeric state from elution volumes (Superdex 200 Increase 10/300 GL, HiLoad 16/600 Superdex 200) with reference to ScKEOPS (monomeric, 117.7 kDa) and standard calibration
[3] = biological target: the molecule itself; experiment: cryo-EM structure; AtKEOPS mixed with tRNA^ArgCCU at 1:2; tRNA not seen; six subunits resolved (KAE1, PCC1, PCC1, KAE1, BUD32, CGI121); 3.2 Å after local refinement

Protein	stoichiometry N [2]	also measured
A. thaliana KEOPS variant PCC1^R73D–KAE1–BUD32–CGI121 (complex, Arabidopsis thaliana) chain 1: MKKKMIAIGFEGSANKIGVGIVTLDGTILANPRHTYITPPGHGFLPRETAHHHLDHVLPLVKSALETSQVTPEEIDCICYTKGPGMGAPLQVSAIVVRVLSQLWKKPIVAVNHCVAHIEMGRVVTGADDPVVLYVSGGNTQVIAYSEGRYRIFGETIDIAVGNCLDRFARVLKLSNDPSPGYNIEQLAKKGENFIDLPYAVKGMDVSFSGILSYIETTAEEKLKNNECTPADLCYSLQETVFAMLVEITERAMAHCDKKDVLIVGGVGCNERLQEMMRTMCSERDGKLFATDDRYCIDNGAMIAYTGLLAFVNGIETPIEDSTFTQRFRTDEVHAVWREKEAVLLGDKKVAAN chain 2: MDCEENVRDESLVLIKQGAEARVFESTFAGRRSIVKERFSKKYRHPILDAKLTLKRLNAEARCMTKARKLGVCTPVLYAVDTLLHSLTLEYIEGVSVKDIFLEFGTNGVVEERLDDVAAQIGAAIAKLHDGGLAHGDLTTSNMLVRSGTNQLVLIDFGLSVTSTLPEDKAVDLYVLERALLSMHSSCGNVMDRILTAYRKSSKQWSATFNKLAQVRQRGRKRTMIG chain 3: MKVFNLDRGNTLSVSLFSGVTNSKELLNSMLDGSLKLEVSFLNASLIPDIFPLLAAAQKALISKSRDSLSTRTLHSELVYNYSGSKHITESLKRCGISENTTYILAARFNASPVEMEEVAKLINGKEIDLEELKTHANQANILKHYKITSQELGISSLGDAIVCRIAARDAL chain 4: MAATVPATTRSDQTWDFSCNLDVSFESEEHALIAYTSLAVDKELQPDKVRRVMSVSNNKLSVHFEAIEARLLDASFSAFVDVLTLATRTIQEFGQK		t^6A-catalytic activity relative to AtKEOPS dimer [1]: ~25%
A. thaliana KAE1–BUD32–PCC1 subcomplex (complex, Arabidopsis thaliana, AtKAE1, A. thaliana; AtBUD32, A. thaliana; AtPCC1, A. thaliana; Written as the three-subunit unit, which by SEC forms a dimer of itself; also called KBP; AtKBP; source: recombinant, heterologous expression; copies: + +) chain 1: MKKKMIAIGFEGSANKIGVGIVTLDGTILANPRHTYITPPGHGFLPRETAHHHLDHVLPLVKSALETSQVTPEEIDCICYTKGPGMGAPLQVSAIVVRVLSQLWKKPIVAVNHCVAHIEMGRVVTGADDPVVLYVSGGNTQVIAYSEGRYRIFGETIDIAVGNCLDRFARVLKLSNDPSPGYNIEQLAKKGENFIDLPYAVKGMDVSFSGILSYIETTAEEKLKNNECTPADLCYSLQETVFAMLVEITERAMAHCDKKDVLIVGGVGCNERLQEMMRTMCSERDGKLFATDDRYCIDNGAMIAYTGLLAFVNGIETPIEDSTFTQRFRTDEVHAVWREKEAVLLGDKKVAAN chain 2: MDCEENVRDESLVLIKQGAEARVFESTFAGRRSIVKERFSKKYRHPILDAKLTLKRLNAEARCMTKARKLGVCTPVLYAVDTLLHSLTLEYIEGVSVKDIFLEFGTNGVVEERLDDVAAQIGAAIAKLHDGGLAHGDLTTSNMLVRSGTNQLVLIDFGLSVTSTLPEDKAVDLYVLERALLSMHSSCGNVMDRILTAYRKSSKQWSATFNKLAQVRQRGRKRTMIG chain 3: MAATVPATTRSDQTWDFSCNLDVSFESEEHALIAYTSLAVDKELQPDKVRRVMSVSNNKLSVHFEAIEARLLRASFSAFVDVLTLATRTIQEFGQK	2	
A. thaliana KEOPS complex (PCC1–KAE1–BUD32–CGI121) (complex, Arabidopsis thaliana, AtKAE1, A. thaliana, as m1; AtBUD32, A. thaliana, as m2; AtCGI121, A. thaliana, as m3; AtPCC1, A. thaliana, as m4; Written as the four-subunit protomer; In solution the wild type is an eight-subunit dimer (K2B2C2P2) of this protomer, and it stood in that form in the pull-down from seedling lysate; also called AtKEOPS; KBCP; source: reconstituted from purified KAE1–PCC1 and BUD32–CGI121 (E. coli) …) chain 1: MKKKMIAIGFEGSANKIGVGIVTLDGTILANPRHTYITPPGHGFLPRETAHHHLDHVLPLVKSALETSQVTPEEIDCICYTKGPGMGAPLQVSAIVVRVLSQLWKKPIVAVNHCVAHIEMGRVVTGADDPVVLYVSGGNTQVIAYSEGRYRIFGETIDIAVGNCLDRFARVLKLSNDPSPGYNIEQLAKKGENFIDLPYAVKGMDVSFSGILSYIETTAEEKLKNNECTPADLCYSLQETVFAMLVEITERAMAHCDKKDVLIVGGVGCNERLQEMMRTMCSERDGKLFATDDRYCIDNGAMIAYTGLLAFVNGIETPIEDSTFTQRFRTDEVHAVWREKEAVLLGDKKVAAN chain 2: MDCEENVRDESLVLIKQGAEARVFESTFAGRRSIVKERFSKKYRHPILDAKLTLKRLNAEARCMTKARKLGVCTPVLYAVDTLLHSLTLEYIEGVSVKDIFLEFGTNGVVEERLDDVAAQIGAAIAKLHDGGLAHGDLTTSNMLVRSGTNQLVLIDFGLSVTSTLPEDKAVDLYVLERALLSMHSSCGNVMDRILTAYRKSSKQWSATFNKLAQVRQRGRKRTMIG chain 3: MKVFNLDRGNTLSVSLFSGVTNSKELLNSMLDGSLKLEVSFLNASLIPDIFPLLAAAQKALISKSRDSLSTRTLHSELVYNYSGSKHITESLKRCGISENTTYILAARFNASPVEMEEVAKLINGKEIDLEELKTHANQANILKHYKITSQELGISSLGDAIVCRIAARDAL chain 4: MAATVPATTRSDQTWDFSCNLDVSFESEEHALIAYTSLAVDKELQPDKVRRVMSVSNNKLSVHFEAIEARLLRASFSAFVDVLTLATRTIQEFGQK	2	
A. thaliana KAE1–PCC1 subcomplex (complex, Arabidopsis thaliana, AtKAE1, A. thaliana, as m1; AtPCC1, A. thaliana, as m4; Written as the KAE1–PCC1 heterodimer unit, which by SEC forms a dimer of itself; also called KP; AtKP; source: E. coli (Rosetta DE3 pLysS or BL21), co-expressed from pET26a–AtKAE1–PCC1-6His, purified (Ni-NTA, SEC)) chain 1: MKKKMIAIGFEGSANKIGVGIVTLDGTILANPRHTYITPPGHGFLPRETAHHHLDHVLPLVKSALETSQVTPEEIDCICYTKGPGMGAPLQVSAIVVRVLSQLWKKPIVAVNHCVAHIEMGRVVTGADDPVVLYVSGGNTQVIAYSEGRYRIFGETIDIAVGNCLDRFARVLKLSNDPSPGYNIEQLAKKGENFIDLPYAVKGMDVSFSGILSYIETTAEEKLKNNECTPADLCYSLQETVFAMLVEITERAMAHCDKKDVLIVGGVGCNERLQEMMRTMCSERDGKLFATDDRYCIDNGAMIAYTGLLAFVNGIETPIEDSTFTQRFRTDEVHAVWREKEAVLLGDKKVAAN chain 2: MAATVPATTRSDQTWDFSCNLDVSFESEEHALIAYTSLAVDKELQPDKVRRVMSVSNNKLSVHFEAIEARLLRASFSAFVDVLTLATRTIQEFGQK	2	
Arabidopsis thaliana PCC1 (natural protein, AtPCC1, A. thaliana, from chemically synthesized DNA; Forms a homodimer in the cryo-EM structure; also called AtPCC1; AT5G53045; source: E. coli (Rosetta DE3 pLysS or BL21), co-expressed with KAE1, purified (Ni-NTA, SEC)) MAATVPATTRSDQTWDFSCNLDVSFESEEHALIAYTSLAVDKELQPDKVRRVMSVSNNKLSVHFEAIEARLLRASFSAFVDVLTLATRTIQEFGQK		binding result [3]: binds
